Here are results for one molecule from publication PMC3061877, “Comparison of the Frequency of Functional SH3 Domains with Different Limited Sets of Amino Acids Using mRNA Display” (PLoS ONE, 2011).

The experiment has as its target wild-type src SH3 domain (T7·tag/His6 construct) (UniProt P00523 81-140). Kind of experiment: other fluorescence titration; fluorescence perturbation assay; aliquots of peptide added to SH3 domain (0.5 µM) in PBS pH 7.4, 10 min at 20°C; excitation 278 nm, emission 350 nm. The following applies: both partners purified.

B1: VSL12 peptide (peptide)
peptide: VSLARRPLPPLP
notes: The methods of the fluorescence perturbation assay say only 'peptide VSL12'; also called free VSL12 peptide; peptide VSL12; source: synthetic peptide, bought: Invitrogen
B1: the affinity, expressed as Kd, was 2300 ± 470 nM.
